Measured values as given in the supplement of paper PMC7877785.
± gives the uncertainty stated by the source.

Assay: self-splicing fitness, log relative to wild type (ln ratio); higher = more splicing; Tetrahymena group I intron in knt gene, E. coli kanamycin selection, DiMSum; sequences stand for … in CUCUCU…GGAGGGAAAAGUUAUCAGGCAUGCACCUGGUAGCUAGUCUUUAAACCAAUAGAUUGCAUCGGUUUAAAAGGCAAGACCGUCAAAUUGCGGGAAAGGGGUCAACAGCCGUUCAGUACCAAGUCUCAGGGGAAACUUUGAGAUGGCCUUGCAAAGGGUAUGGUAAUAAGCUGACGGACAUGGUCCUAACCACGCAGCCAAGUCCUAAGUCAACAGAUCUUCUGUUGAUAUGGAUGCAGUUCACAGACUAAAUGUCGGUCGGGGAAGAUGUAUUCUUCUCAUAAGAUAUAGUCGGACCUCUCCUUAAUGGGAGCUAGCGGAUGAAGUGAUGCAACACUGGAGCCGCUGGGAACUAAUUUGUAUGCGAAAGUAUAUUGAUUAGUUUUGGAGUACUCGUGGUCG
Procedure, shortened: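 Pooled colonies went to amplicon sequencing on an Illumina HiSeq 2500 after six replicate transformations. The plates were LB agar with 100 μg/mL carbenicillin, 50 μM IPTG and 0.2% rhamnose, with or without 25 μg/mL kanamycin, incubated overnight at 37°C or 30°C. The E. coli BL21(DE3) library had all eight P1ex-region intron nucleotides randomised, the intron placed in the knt kanamycin-resistance gene on pET-22b(+). DiMSum fitness is the error-weighted combination of replicate fold changes, kanamycin against none, normalised to wild type.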

Sequence | self-splicing fitness (ln) (30 °C) | self-splicing fitness (ln) (37 °C)
GCCCAGCAAUAUUACGUUUU | -1.53 ± 0.064 | -0.591 ± 0.09
GCCGAGCAAUAUUACGAAGA | -2.76 ± 0.16 | -2.03 ± 0.12
GCCGAGCAAUAUUACGAGAA | -2.99 ± 0.19 | -0.755 ± 0.12
GCCGAGCAAUAUUACGAGGU | -4 ± 0.3 | -2.23 ± 0.25
GCCGAGCAAUAUUACGAUGU | -0.691 ± 0.057 | -0.267 ± 0.069
GCCGAGCAAUAUUACGCAAC | -3.15 ± 0.29 | -2.07 ± 0.26
GCCGAGCAAUAUUACGCAUG | -3.99 ± 0.3 | -2.4 ± 0.22
GCCGAGCAAUAUUACGCCGC | -3.95 ± 0.43 | –
GCCGAGCAAUAUUACGCUUG | -3.71 ± 0.23 | -2.78 ± 0.24
GCCGAGCAAUAUUACGGACU | -1.86 ± 0.2 | -0.863 ± 0.15
GCCGAGCAAUAUUACGGCAG | -3.94 ± 0.29 | -2.61 ± 0.33
GCCGAGCAAUAUUACGGGGG | -3.61 ± 0.19 | -3.02 ± 0.31
GCCGAGCAAUAUUACGUAAU | -1.28 ± 0.092 | -0.203 ± 0.099
GCCGAGCAAUAUUACGUAUA | -3.29 ± 0.15 | -1.87 ± 0.12
GCCGAGCAAUAUUACGUCUC | -2.92 ± 0.22 | -1.44 ± 0.21
GCCGAGCAAUAUUACGUGGC | -3.26 ± 0.14 | -2.25 ± 0.21
GCCGAGCAAUAUUACGUGUA | -1.32 ± 0.071 | -0.983 ± 0.078
GCCGAGCAAUAUUACGUUCG | -2.72 ± 0.26 | -2 ± 0.34
GCCGAGCAAUAUUACGUUGG | -3.55 ± 0.24 | -2.18 ± 0.27
GCCUAGCAAUAUUACGAAUA | -2.12 ± 0.43 | –

Sequence | self-splicing fitness (ln) (30 °C) | self-splicing fitness (ln) (37 °C)
GCCUAGCAAUAUUACGAAUU | -2.09 ± 0.12 | -0.976 ± 0.11
GCCUAGCAAUAUUACGACGC | -0.302 ± 0.091 | 0.255 ± 0.11
GCCUAGCAAUAUUACGACUU | -1.37 ± 0.077 | -0.298 ± 0.079
GCCUAGCAAUAUUACGAUAA | -2.08 ± 0.12 | -1.75 ± 0.14
GCCUAGCAAUAUUACGAUUC | -0.921 ± 0.076 | -0.684 ± 0.096
GCCUAGCAAUAUUACGCAAU | -0.932 ± 0.14 | -0.245 ± 0.17
GCCUAGCAAUAUUACGCUCU | -0.984 ± 0.06 | 0.106 ± 0.083
GCCUAGCAAUAUUACGCUGA | -1.69 ± 0.074 | -0.266 ± 0.079
GCCUAGCAAUAUUACGGCAA | -2.64 ± 0.15 | -1.75 ± 0.14
GCCUAGCAAUAUUACGGCCU | -2.48 ± 0.18 | -1.33 ± 0.24
GCCUAGCAAUAUUACGGCUG | -1.88 ± 0.15 | -3.29 ± 0.42
GCCUAGCAAUAUUACGGGUU | -2.93 ± 0.12 | -2.02 ± 0.13
GCCUAGCAAUAUUACGGUGU | -0.374 ± 0.054 | 0.0553 ± 0.064
GCCUAGCAAUAUUACGGUUU | -0.729 ± 0.05 | -0.56 ± 0.062
GCCUAGCAAUAUUACGUCGC | -1.46 ± 0.17 | -1.01 ± 0.16
GCCUAGCAAUAUUACGUUCU | -1.96 ± 0.14 | -0.354 ± 0.12
GCGAAGCAAUAUUACGAACU | -0.877 ± 0.16 | -0.787 ± 0.17
GCGAAGCAAUAUUACGAAGU | -2.99 ± 0.35 | -2.89 ± 0.26
GCGAAGCAAUAUUACGACGC | -1.98 ± 0.47 | –
GCGAAGCAAUAUUACGACGG | -1.27 ± 0.21 | -0.313 ± 0.33

Sequence | self-splicing fitness (ln) (30 °C) | self-splicing fitness (ln) (37 °C)
GCGAAGCAAUAUUACGACUU | -1.4 ± 0.1 | -0.741 ± 0.12
GCGAAGCAAUAUUACGAGCA | -1.52 ± 0.2 | -1.63 ± 0.25
GCGAAGCAAUAUUACGAGGG | -3.77 ± 0.23 | -3.27 ± 0.35
GCGAAGCAAUAUUACGAUCA | -1.82 ± 0.34 | -1.01 ± 0.3
GCGAAGCAAUAUUACGAUCG | -2.49 ± 0.31 | -0.964 ± 0.28
GCGAAGCAAUAUUACGCACA | -1.08 ± 0.13 | -0.906 ± 0.14
GCGAAGCAAUAUUACGCACG | -2.58 ± 0.21 | -3.6 ± 0.35
GCGAAGCAAUAUUACGCAGG | -3.06 ± 0.27 | -2.39 ± 0.23
GCGAAGCAAUAUUACGCCUG | -2.26 ± 0.19 | -2.16 ± 0.24
GCGAAGCAAUAUUACGCGGG | -2.26 ± 0.16 | -2.72 ± 0.36
GCGAAGCAAUAUUACGCGGU | -2.84 ± 0.29 | -1.65 ± 0.32
GCGAAGCAAUAUUACGCUAA | -2.54 ± 0.28 | -2.21 ± 0.2
GCGAAGCAAUAUUACGCUGG | -1.61 ± 0.13 | -2.73 ± 0.22
GCGAAGCAAUAUUACGGAAC | -2.72 ± 0.21 | -2.28 ± 0.47
GCGAAGCAAUAUUACGGCAG | -1.93 ± 0.21 | -2.92 ± 0.38
GCGAAGCAAUAUUACGGCUG | -1.55 ± 0.1 | -0.574 ± 0.14
GCGAAGCAAUAUUACGGGCA | -1.96 ± 0.15 | -0.529 ± 0.11
GCGAAGCAAUAUUACGGGUU | -2.88 ± 0.1 | -1.65 ± 0.099
GCGAAGCAAUAUUACGGUGA | -2.09 ± 0.11 | -1.07 ± 0.12
GCGAAGCAAUAUUACGUAUG | -4.39 ± 0.26 | -2.81 ± 0.16
